Results as given in paper PMC3905071.

How the values were obtained:
[1] = molecular target: YB-1 (WT) (UniProt P67809 1-324); assay: EMSA and filter binding
[2] = molecular target: YB-1 (1-219), truncated (UniProt P67809 1-219); assay: EMSA and filter binding
Chain of YB-1 (1-219), truncated (P67809 1-219): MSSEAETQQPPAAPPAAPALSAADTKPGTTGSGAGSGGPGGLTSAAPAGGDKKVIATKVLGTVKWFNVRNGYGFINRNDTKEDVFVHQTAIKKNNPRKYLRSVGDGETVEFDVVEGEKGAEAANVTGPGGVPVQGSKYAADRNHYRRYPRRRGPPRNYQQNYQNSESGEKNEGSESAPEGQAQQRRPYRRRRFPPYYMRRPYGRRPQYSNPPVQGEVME

Chain of YB-1 (WT) (P67809 whole entry, the tested form may be a part): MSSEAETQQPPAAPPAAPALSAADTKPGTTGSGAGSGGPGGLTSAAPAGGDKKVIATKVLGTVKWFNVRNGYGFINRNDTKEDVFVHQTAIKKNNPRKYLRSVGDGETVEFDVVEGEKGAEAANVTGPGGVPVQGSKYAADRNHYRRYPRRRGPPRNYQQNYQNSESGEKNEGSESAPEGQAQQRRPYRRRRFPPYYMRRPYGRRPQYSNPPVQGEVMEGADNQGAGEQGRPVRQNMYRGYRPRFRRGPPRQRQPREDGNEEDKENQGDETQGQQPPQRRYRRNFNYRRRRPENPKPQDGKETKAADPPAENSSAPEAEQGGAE

## AAACTGATTGGCCAAAAA (ssDNA) [18-nt Y-box ssDNA]
[1]
  binding result: binds
[2]
  binding result: binds
